Laboratory results as given in PMC12799421, “Inhibition of constitutive activity of the atypical chemokine receptor 3 by the small-molecule inverse agonist VUF16840” (Molecular Pharmacology, 2025).
Values belong to the compound of their own block, whether it stands above or below them.

Key:
[1] = biological target: hACKR3-SmBiT (HA-tagged ACKR3 C-terminally fused to SmBiT) (human) (UniProt P25106)
[2] = biological target: N-terminally NLuc-tagged hACKR3 (human) (UniProt P25106)
[3] = biological target: T1, ACKR3 (Homo sapiens, UniProt P25106); test: BRET β-arrestin2 recruitment to hACKR3 in HEK293T cells; type: cell-based; details: * VUF16840 as inverse agonist; mean ± SD (N)
T1 construct: expressed in transfected cells; host or cells: HEK293T
T1 sequence (P25106 whole entry): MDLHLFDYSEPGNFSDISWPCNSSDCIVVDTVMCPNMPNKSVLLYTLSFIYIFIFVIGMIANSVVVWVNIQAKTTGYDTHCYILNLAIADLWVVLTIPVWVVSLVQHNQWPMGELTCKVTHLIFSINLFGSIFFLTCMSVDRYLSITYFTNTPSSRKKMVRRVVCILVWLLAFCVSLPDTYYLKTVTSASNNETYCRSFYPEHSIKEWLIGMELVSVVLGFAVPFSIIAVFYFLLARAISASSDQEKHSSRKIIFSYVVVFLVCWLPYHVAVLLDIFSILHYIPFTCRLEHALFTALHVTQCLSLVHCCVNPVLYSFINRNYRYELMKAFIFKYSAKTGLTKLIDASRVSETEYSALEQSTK
Experimental: (§1) For bioluminescence resonance energy transfer (BRET) experiments, several BRET acceptor constructs were used that consist of the pcDEF3 vector with either GRK2 (NCBI: NM_174710.2), β-arrestin1 (NCBI: NM_174243.3), or β-arrestin2 (NCBI: XM_005220181.4) fused at the C-terminus with a SpeI/NotI linker to mVenus (NCBI: KP666136.1), as previously described.[34]
(§2) For 1·10^6 HEK293T cells, a transfection mix consisting of 2 μg plasmid DNA, 12 μg linear PEI in a total volume of 200 μL 150 mM NaCl was made and thoroughly vortexed. The transfection mix was incubated for 15 minutes and consequently added to a cell suspension with a final concentration of 3·10^5 cells/mL. For functional studies this cell suspension was immediately transferred to a poly-L-lysine-coated white 96-well plate, with 3·10^4 cells per well. […] For BRET-based membrane localization experiments, the 2 μg plasmid DNA consisted of ACKR3-NL (0.05 μg), mVenus-CAAX (0.25 μg), and pcDEF3 vector DNA without insert (1.7 μg).
(§3) Mean pIC50 values were determined by averaging fitted values from individual experiments. Graphs depict the pooled data of all experiments. Similarly, sigmoidal, ligand-induced concentration-dependent activation or inhibition of the proximity between ACKR3 and the protein of interest was analyzed using GraphPad Prism 8, by fitting a 3-parameter concentration-response model to the data, to determine pEC50/pIC50 values. Mean pEC50 values and pIC50 values were determined by averaging fitted values from individual experiments. Graphs depict the pooled data of all experiments, for which values are normalized, per experiment, to the fold difference compared with basal signal.

[4] = biological target: T1, ACKR3; test: BRET β-arrestin1 recruitment to ACKR3 in HEK293T cells; type: cell-based; details: * VUF16840 as inverse agonist
Experimental: as §1, §2, §3
HEK293T cells were stimulated with increasing concentrations of VUF15485 or VUF16840 only (A–D), or increasing concentrations of VUF16840 in the presence of 100 nM VUF15485 (E–H). The resulting proximity between ACKR3 and β-arrestin1 (A, E), GRK2 (B, F), or Rab5a (C, G) was determined by bioluminescence resonance energy transfer. Furthermore, an interaction between clathrin A and β-arrestin2 was measured by NLuc complementation, as was determined by quantifying the relative light units (D, H). Depicted data is normalized as fold-basal and represents the mean ± SD of N experiments with triplicate measurements per experiment. N is specified in Supplemental Table 1.

[5] = test system: CXCL12 levels; details: humans; cited from earlier work
[6] = test system: CXCL12 levels; set-up: method as in PMID 33595155, PMID 38819698; details: mice, in vivo application; cited from earlier work
[7] = biological target: CCR3 (Homo sapiens, UniProt P51677); test: NanoBiT β-arrestin2 recruitment to CCR3, concentration-response; type: cell-based; details: HEK293T, NanoBiT
Sequence of CCR3 (P51677 whole entry): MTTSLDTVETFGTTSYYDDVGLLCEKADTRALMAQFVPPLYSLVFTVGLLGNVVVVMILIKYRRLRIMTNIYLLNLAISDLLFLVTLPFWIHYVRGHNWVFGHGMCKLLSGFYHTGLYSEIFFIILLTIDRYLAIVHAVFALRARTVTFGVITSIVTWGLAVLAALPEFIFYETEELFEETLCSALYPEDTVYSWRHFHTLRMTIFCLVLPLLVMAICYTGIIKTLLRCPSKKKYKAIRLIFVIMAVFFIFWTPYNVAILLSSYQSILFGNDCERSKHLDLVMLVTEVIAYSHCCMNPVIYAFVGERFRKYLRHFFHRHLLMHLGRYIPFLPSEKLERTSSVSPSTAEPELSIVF
Sequence of CCR3 (P32121 whole entry partner): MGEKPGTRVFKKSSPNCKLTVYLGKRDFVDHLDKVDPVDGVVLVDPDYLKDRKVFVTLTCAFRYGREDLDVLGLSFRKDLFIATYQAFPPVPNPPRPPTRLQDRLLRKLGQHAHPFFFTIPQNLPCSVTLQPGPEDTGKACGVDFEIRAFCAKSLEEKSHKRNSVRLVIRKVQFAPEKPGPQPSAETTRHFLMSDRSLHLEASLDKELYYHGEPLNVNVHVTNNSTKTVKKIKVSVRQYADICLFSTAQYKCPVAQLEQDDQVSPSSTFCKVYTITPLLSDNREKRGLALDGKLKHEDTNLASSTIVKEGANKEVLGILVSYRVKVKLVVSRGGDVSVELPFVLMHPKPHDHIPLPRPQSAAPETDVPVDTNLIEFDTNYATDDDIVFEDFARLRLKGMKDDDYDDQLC
Experimental: The pharmacological modulation of all chemokine receptors by VUF16840 was performed according to an established method.[8]^,[23]^,[39] Briefly, β-arrestin2 recruitment to chemokine receptors in response to 1 μM VUF16840 or positive control chemokines was monitored by NanoLuc complementation assay (NanoBiT, Promega). Four hours after transfection, cells were harvested, incubated for 25 minutes at 37 °C with furimazine and distributed into a white 96-well plates (1 × 10^5 cells per well). β-Arrestin2 recruitment was then detected for 20 minutes upon treatment with 1 μM VUF16840 (or increasing concentrations ligand for experiments with CC chemokine receptor [CCR3]) using the Mithras LB940 luminometer (Berthold Technologies). To evaluate the antagonist properties of VUF16840, full agonists of each receptor were added after the 20-minute incubation with VUF16840. Signal from wells treated with full agonist only was defined as 100% activity and signals from wells treated with no agonist were used to set 0% activity.
Supplemental Figure 5 – Modulation of CCR3 receptor by VUF16840. Recruitment of β-arrestin2 towards CCR3 chemokine receptor was measured using a NLuc complementation assay in HEK293T cells. The concentration-dependent activation of the CCR3 was determined for VUF16840 and the endogenous agonist CCL13. All values depict the mean ± SD of ≥ 3 experiments.

[8] = biological target: hCCR3 C-terminally tagged with SmBiT (chemokine receptor screen) (human) (UniProt P51677)
Sequence of hCCR3 C-terminally tagged with SmBiT (chemokine receptor screen) (human) (P51677 whole entry): as the sequence (P51677 whole entry) above

Sequence of Human recombinant CXCL12 (P48061 22-93): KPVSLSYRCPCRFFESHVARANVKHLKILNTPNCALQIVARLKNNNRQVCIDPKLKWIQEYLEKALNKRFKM
Sequence of CCL13 (Q99616 17-98): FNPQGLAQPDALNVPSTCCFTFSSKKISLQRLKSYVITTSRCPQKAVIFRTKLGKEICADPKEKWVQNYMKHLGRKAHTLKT
Sequence of N-terminally NLuc-tagged hACKR3 (human) (P25106 whole entry): as the sequence (P25106 whole entry) above
Sequence of hACKR3-SmBiT (HA-tagged ACKR3 C-terminally fused to SmBiT) (human) (P25106 whole entry, the tested form may be a part): as the sequence (P25106 whole entry) above

β-arrestin2 recruitment to hACKR3 (NanoBiT, HEK293T, concentration-response after 30 minutes), EC50 of CXCL12 [1]: 0.0016 µM
bystander BRET between ACKR3-NLuc (C-terminal NLuc, not the construct of m2) and plasma membrane mVenus-CAAX in HEK293T cells (receptor internalization), pIC50 of CXCL12 [2]: 9.1 pIC50
Compound: Human recombinant CXCL12 (from UniProt P48061 22-93) (ligand)

β-arrestin2 BRET pEC50 [3]: 8.2 ± 0.1 (3)
β-arrestin1 BRET pEC50 [4]: 8.1 ± 0.1 (6)
Compound: CXCL11: human recombinant chemokine, endogenous agonist of ACKR3

Compound: O=C(N[C@H]1CCN(CC2CC2)C[C@@H]1C(=O)NC1(c2ncccn2)CC1)c1cc(-c2ccc(F)cc2F)on1 [ACT1004-1239]
plasma CXCL12 levels [5]: increase
plasma and brain CXCL12 levels [6]: increase

Compound: CCL13: endogenous ligand (agonist) of CCR3
pEC50, activation of CCR3 (β-arrestin2 recruitment) [7]: 7.2 ± 0.1
EC50 ([7]; read-out: EC50, activation of CCR3 (β-arrestin2 recruitment)): 0.063 µM

β-arrestin2 recruitment to CCR3 (NanoBiT, HEK293T), EC50 of CCL13 [8]: 0.063 µM
Compound: CCL13 (from UniProt Q99616 17-98) (ligand)
